T1: IL-11 (Cat. 12225-HNCE, Sino Biological Inc.) (UniProt P20809 22-199, limits assumed)
T1 sequence (looked up): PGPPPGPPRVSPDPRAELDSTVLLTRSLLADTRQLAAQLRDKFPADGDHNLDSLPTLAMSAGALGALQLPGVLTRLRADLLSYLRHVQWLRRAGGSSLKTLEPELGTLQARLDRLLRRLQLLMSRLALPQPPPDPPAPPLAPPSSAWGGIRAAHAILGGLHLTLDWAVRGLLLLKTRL

T2: human IL-11 (AAH12506.1, Pro22-Leu199) (human, UniProt P20809 22-199)
T2 construct: The range Pro22-Leu199 counts on AAH12506.1; The Octet runs say only 'human IL-11'; also called hIL-11
T2 chain: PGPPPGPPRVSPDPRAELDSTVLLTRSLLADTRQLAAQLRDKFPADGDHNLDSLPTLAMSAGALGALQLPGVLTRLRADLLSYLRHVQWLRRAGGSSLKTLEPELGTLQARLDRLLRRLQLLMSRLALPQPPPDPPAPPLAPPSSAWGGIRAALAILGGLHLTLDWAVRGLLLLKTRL


Tests used:
[1] = target: T1, IL-11 (Cat. 12225-HNCE, Sino Biological …); experiment: cell-based or functional assay
[2] = target: T2, human IL-11 (AAH12506.1, Pro22-Leu199); experiment: BLI (Octet), antibody captured, human IL-11 in solution
Procedure, shortened: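 On a Fortebio Octet QKe System, antibodies in HBS-EP+ buffer were captured on anti-mouse IgG Fc or anti-human Fc biosensors. Human IL-11 was flowed over at 300 nM in the same buffer, with a 300-second association followed by a 300-second dissociation. Blank-subtracted curves were fitted to a 1:1 Langmuir binding model to give kon, koff and Kd.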

Blocking activity (IC50), STAT3-luc reporter [1] | Kd [2] | koff [2] | kon [2] | Binder
0.13 µg/mL | 0.101 nM | 0.0001 s⁻¹ | 993000 M⁻¹ s⁻¹ | hz18A10-VHm19 + hz18A10-VLm19 (antibody, human IgG1, kappa, V domains shown, named hz18A10m19; also called hz18A10m19) VH: EVQLVQSGAEVKKPGASVKVSCKASGYTFTHYNMDWVRQAPGQGLEWMGTIYPGNADTSYNQKFKGRVTMTRDTSTSTVYMELSSLRSEDTAVYYCARGDLYALDYWGQGTLVTVSS VL: DIQMTQSPSSLSASVGDRVTITCKASQSVYRDVAWYQQKPGKAPKLLIYSASNRYTGVPSRFSGSGSGTDFTFTISSLQPEDIATYYCQHDYSSPYTFGQGTKLEIKR
1.25 µg/mL | 0.54 nM | 0.000463 s⁻¹ | 859000 M⁻¹ s⁻¹ | hz18A10-VH + hz18A10-VLm9 (antibody, V domains shown, Constant regions not restated for this antibody) VH: EVQLVQSGAEVKKPGASVKVSCKASGYTFTTYNMDWVRQAPGQGLEWMGTIYPGNGDTSYNQKFKGRVTMTRDTSTSTVYMELSSLRSEDTAVYYCARGDLYALDYWGQGTLVTVSS VL: DIQMTQSPSSLSASVGDRVTITCKASQSVYSDVAWYQQKPGKAPKLLIYSASNRYTGVPSRFSGSGSGTDFTFTISSLQPEDIATYYCQHDYSSPYTFGQGTKLEIK
3.47 µg/mL | 0.45 nM | 0.000326 s⁻¹ | 725000 M⁻¹ s⁻¹ | hz18A10-VH + hz18A10-VLm17 (antibody, V domains shown, Constant regions not restated for this antibody) VH: EVQLVQSGAEVKKPGASVKVSCKASGYTFTTYNMDWVRQAPGQGLEWMGTIYPGNGDTSYNQKFKGRVTMTRDTSTSTVYMELSSLRSEDTAVYYCARGDLYALDYWGQGTLVTVSS VL: DIQMTQSPSSLSASVGDRVTITCKASQSVYRDVAWYQQKPGKAPKLLIYRASNRYTGVPSRFSGSGSGTDFTFTISSLQPEDIATYYCQHDYSSPYTFGQGTKLEIK
11.6 µg/mL | 3.54 nM | 0.00265 s⁻¹ | 750000 M⁻¹ s⁻¹ | hz18A10-VH + hz18A10-VLm12 (antibody, V domains shown, Constant regions not restated for this antibody) VH: EVQLVQSGAEVKKPGASVKVSCKASGYTFTTYNMDWVRQAPGQGLEWMGTIYPGNGDTSYNQKFKGRVTMTRDTSTSTVYMELSSLRSEDTAVYYCARGDLYALDYWGQGTLVTVSS VL: DIQMTQSPSSLSASVGDRVTITCKASQSVSNDVAWYQQKPGKAPKLLIYSASSRYTGVPSRFSGSGSGTDFTFTISSLQPEDIATYYCQHDYSSPYTFGQGTKLEIK
3.12 µg/mL | 0.803 nM | 0.000746 s⁻¹ | 929000 M⁻¹ s⁻¹ | hz18A10-VH + hz18A10-VLm8 (antibody, V domains shown, Constant regions not restated for this antibody) VH: EVQLVQSGAEVKKPGASVKVSCKASGYTFTTYNMDWVRQAPGQGLEWMGTIYPGNGDTSYNQKFKGRVTMTRDTSTSTVYMELSSLRSEDTAVYYCARGDLYALDYWGQGTLVTVSS VL: DIQMTQSPSSLSASVGDRVTITCKASQSVYHDVAWYQQKPGKAPKLLIYSASNRYTGVPSRFSGSGSGTDFTFTISSLQPEDIATYYCQHDYSSPYTFGQGTKLEIK
15.2 µg/mL | 3.94 nM | 0.00277 s⁻¹ | 704000 M⁻¹ s⁻¹ | hz18A10-VH + hz18A10-VLm3 (antibody, V domains shown, Constant regions not restated for this antibody) VH: EVQLVQSGAEVKKPGASVKVSCKASGYTFTTYNMDWVRQAPGQGLEWMGTIYPGNGDTSYNQKFKGRVTMTRDTSTSTVYMELSSLRSEDTAVYYCARGDLYALDYWGQGTLVTVSS VL: DIQMTQSPSSLSASVGDRVTITCKASHSVSNDVAWYQQKPGKAPKLLIYSASNRYTGVPSRFSGSGSGTDFTFTISSLQPEDIATYYCQHDYSSPYTFGQGTKLEIK
14.2 µg/mL | 3.99 nM | 0.00268 s⁻¹ | 673000 M⁻¹ s⁻¹ | hz18A10-VH + hz18A10-VLm13 (antibody, V domains shown, Constant regions not restated for this antibody) VH: EVQLVQSGAEVKKPGASVKVSCKASGYTFTTYNMDWVRQAPGQGLEWMGTIYPGNGDTSYNQKFKGRVTMTRDTSTSTVYMELSSLRSEDTAVYYCARGDLYALDYWGQGTLVTVSS VL: DIQMTQSPSSLSASVGDRVTITCKASQSVSNDVAWYQQKPGKAPKLLIYSASRRYTGVPSRFSGSGSGTDFTFTISSLQPEDIATYYCQHDYSSPYTFGQGTKLEIK
12.7 µg/mL | 4.06 nM | 0.00295 s⁻¹ | 727000 M⁻¹ s⁻¹ | hz18A10-VH + hz18A10-VLm10 (antibody, V domains shown, Constant regions not restated for this antibody) VH: EVQLVQSGAEVKKPGASVKVSCKASGYTFTTYNMDWVRQAPGQGLEWMGTIYPGNGDTSYNQKFKGRVTMTRDTSTSTVYMELSSLRSEDTAVYYCARGDLYALDYWGQGTLVTVSS VL: DIQMTQSPSSLSASVGDRVTITCKASQSVSNDLAWYQQKPGKAPKLLIYSASNRYTGVPSRFSGSGSGTDFTFTISSLQPEDIATYYCQHDYSSPYTFGQGTKLEIK
4.07 µg/mL | 1.8 nM | 0.00134 s⁻¹ | 747000 M⁻¹ s⁻¹ | hz18A10-VH + hz18A10-VLm11 (antibody, V domains shown, Constant regions not restated for this antibody) VH: EVQLVQSGAEVKKPGASVKVSCKASGYTFTTYNMDWVRQAPGQGLEWMGTIYPGNGDTSYNQKFKGRVTMTRDTSTSTVYMELSSLRSEDTAVYYCARGDLYALDYWGQGTLVTVSS VL: DIQMTQSPSSLSASVGDRVTITCKASQSVSNDVAWYQQKPGKAPKLLIYRASNRYTGVPSRFSGSGSGTDFTFTISSLQPEDIATYYCQHDYSSPYTFGQGTKLEIK
9.89 µg/mL | 1.97 nM | 0.000938 s⁻¹ | 699000 M⁻¹ s⁻¹ | hz18A10-VH + hz18A10-VLm16 (antibody, V domains shown, Constant regions not restated for this antibody) VH: EVQLVQSGAEVKKPGASVKVSCKASGYTFTTYNMDWVRQAPGQGLEWMGTIYPGNGDTSYNQKFKGRVTMTRDTSTSTVYMELSSLRSEDTAVYYCARGDLYALDYWGQGTLVTVSS VL: DIQMTQSPSSLSASVGDRVTITCKASQSVSNDVAWYQQKPGKAPKLLIYRASRRYPGVPSRFSGSGSGTDFTFTISSLQPEDIATYYCQHDYSSPYTFGQGTKLEIK
18.1 µg/mL | 4.09 nM | 0.00281 s⁻¹ | 688000 M⁻¹ s⁻¹ | hz18A10-VH + hz18A10-VLm5 (antibody, V domains shown, Constant regions not restated for this antibody) VH: EVQLVQSGAEVKKPGASVKVSCKASGYTFTTYNMDWVRQAPGQGLEWMGTIYPGNGDTSYNQKFKGRVTMTRDTSTSTVYMELSSLRSEDTAVYYCARGDLYALDYWGQGTLVTVSS VL: DIQMTQSPSSLSASVGDRVTITCKASQSVSNDIAWYQQKPGKAPKLLIYSASNRYTGVPSRFSGSGSGTDFTFTISSLQPEDIATYYCQHDYSSPYTFGQGTKLEIK
19.3 µg/mL | 4.61 nM | 0.00331 s⁻¹ | 718000 M⁻¹ s⁻¹ | hz18A10-VH + hz18A10-VLm1 (antibody, V domains shown, Constant regions not restated for this antibody) VH: EVQLVQSGAEVKKPGASVKVSCKASGYTFTTYNMDWVRQAPGQGLEWMGTIYPGNGDTSYNQKFKGRVTMTRDTSTSTVYMELSSLRSEDTAVYYCARGDLYALDYWGQGTLVTVSS VL: DIQMTQSPSSLSASVGDRVTITCKASKSVSNDVAWYQQKPGKAPKLLIYSASNRYTGVPSRFSGSGSGTDFTFTISSLQPEDIATYYCQHDYSSPYTFGQGTKLEIK
16.4 µg/mL | 3.12 nM | 0.00237 s⁻¹ | 760000 M⁻¹ s⁻¹ | hz18A10-VH + hz18A10-VLm4 (antibody, V domains shown, Constant regions not restated for this antibody) VH: EVQLVQSGAEVKKPGASVKVSCKASGYTFTTYNMDWVRQAPGQGLEWMGTIYPGNGDTSYNQKFKGRVTMTRDTSTSTVYMELSSLRSEDTAVYYCARGDLYALDYWGQGTLVTVSS VL: DIQMTQSPSSLSASVGDRVTITCKASQFVSNDVAWYQQKPGKAPKLLIYSASNRYTGVPSRFSGSGSGTDFTFTISSLQPEDIATYYCQHDYSSPYTFGQGTKLEIK
17.4 µg/mL | 2.3 nM | 0.00185 s⁻¹ | 806000 M⁻¹ s⁻¹ | hz18A10-VH + hz18A10-VLm2 (antibody, V domains shown, Constant regions not restated for this antibody) VH: EVQLVQSGAEVKKPGASVKVSCKASGYTFTTYNMDWVRQAPGQGLEWMGTIYPGNGDTSYNQKFKGRVTMTRDTSTSTVYMELSSLRSEDTAVYYCARGDLYALDYWGQGTLVTVSS VL: DIQMTQSPSSLSASVGDRVTITCKASYSVSNDVAWYQQKPGKAPKLLIYSASNRYTGVPSRFSGSGSGTDFTFTISSLQPEDIATYYCQHDYSSPYTFGQGTKLEIK
2.6 µg/mL | 0.877 nM | 0.000794 s⁻¹ | 905000 M⁻¹ s⁻¹ | hz18A10-VH + hz18A10-VLm6 (antibody, V domains shown, Constant regions not restated for this antibody) VH: EVQLVQSGAEVKKPGASVKVSCKASGYTFTTYNMDWVRQAPGQGLEWMGTIYPGNGDTSYNQKFKGRVTMTRDTSTSTVYMELSSLRSEDTAVYYCARGDLYALDYWGQGTLVTVSS VL: DIQMTQSPSSLSASVGDRVTITCKASQSVFHDVAWYQQKPGKAPKLLIYSASNRYTGVPSRFSGSGSGTDFTFTISSLQPEDIATYYCQHDYSSPYTFGQGTKLEIK
4.38 µg/mL | 0.419 nM | 0.0003 s⁻¹ | 716000 M⁻¹ s⁻¹ | hz18A10-VH + hz18A10-VLm18 (antibody, V domains shown, Constant regions not restated for this antibody) VH: EVQLVQSGAEVKKPGASVKVSCKASGYTFTTYNMDWVRQAPGQGLEWMGTIYPGNGDTSYNQKFKGRVTMTRDTSTSTVYMELSSLRSEDTAVYYCARGDLYALDYWGQGTLVTVSS VL: DIQMTQSPSSLSASVGDRVTITCKASQSVYRDVAWYQQKPGKAPKLLIYRASSRYTGVPSRFSGSGSGTDFTFTISSLQPEDIATYYCQHDYSSPYTFGQGTKLEIK
